Experimental data from the supplement of paper PMC11865577.

Columns and labels:
Experiment in all cases: pull-down binding Z-score (relative to library population); higher = stronger binding
[1] = system: TO-3-N3-2 (biotin conjugate); details: RNA library: Library-2
Procedure, shortened: (§1)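 A heat-folded, dye-end-labelled (Cy5 or Cy3) RNA library (1 μg, phosphate/NaCl/KCl buffer) was exposed for 60 min at 25 °C to streptavidin beads holding 100 pmol of biotin-conjugated small molecule. RNA retained on the beads was eluted in hot SDS and hybridised to a DNA barcode microarray for 20 h at 55.5 °C. Binding scores were Z-scores against the library mean and standard deviation, calculated after subtracting beads alone and taking trimmed means of replicate probes.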

[2] = system: G-clamp-N3 (biotin conjugate); details: RNA library: Library-1 (pre-miRNA loops + repeats)
Procedure, shortened: as §1

[3] = system: TO-N3-2 (biotin conjugate); details: RNA library: Library-2
Procedure, shortened: as §1

[4] = system: TO-3-N3 (biotin conjugate); details: RNA library: Library-2
Procedure, shortened: as §1

TO-N3 (biotin conjugate) = details: RNA library: Library-2
Procedure, shortened: as §1

Row | Sequence | pull-down binding Z-score [1] | pull-down binding Z-score [2] | pull-down binding Z-score [3] | pull-down binding Z-score [4] | pull-down binding Z-score (TO-N3 (biotin conjugate))
1 | AUGGUUCCUAUUCUGAUCAAUAAACAUGGUUUGAGCCUAGUUACAAUGAUCUAAAAUUCACGGUCCAA [hsa-mir-548o] | -0.193 | -1.15 | -0.0344 | -0.961 | -0.587
2 | AGCUGGGGCCGGGU [hsa-mir-4281] | 0.821 | 0.118 | 1.27 | 1.37 | 1.63
3 | CUGUGCUGUCUCUGAGCACCG [hsa-mir-6827] | -0.348 | 0.0113 | 0.586 | 0.0475 | 0.322
4 | UCUCAAUCCAUUCAUAUUGAAA [hsa-mir-3662] | -0.33 | -1.04 | -0.68 | 0.563 | 0.226
5 | UUUUUGUUUUUGAGACAGAGU [hsa-mir-4472-2] | 0.0401 | -0.943 | -0.803 | 0.455 | 0.274
6 | UGGUCAGAUAUCCCAU [hsa-mir-8060] | -0.195 | -1.4 | -0.0919 | -0.323 | -0.262
7 | UCCCUUCCUGGACACACAGGAGGAGA [hsa-mir-5680] | -0.8 | -1.27 | -0.56 | -0.738 | -0.874
8 | CAGAGCUGCAGCUGCUCCACCCUG [hsa-mir-6730] | 0.319 | -0.915 | 1.42 | 0.563 | 1.12
9 | CAGGCAGUGGAGUUACUU [hsa-mir-600] | 0.557 | -1.07 | 1 | 0.683 | 1.01
10 | CUUUAGCUAUUCUGAAUGCCUAAAG [hsa-mir-4662a] | -0.236 | -0.469 | -0.393 | -0.298 | -0.375
11 | CCGCCCUCGUGUCUGUGGCGGUGG [hsa-mir-663a] | -0.231 | 0.239 | 0.679 | 0.171 | 0.334
12 | GCUGCCAGGAAAUCCCUAUUUCAUAUAAGAGGGGGCUGGCUGGUUGC [hsa-mir-448] | 0.236 | 1.08 | 0.355 | 0.185 | 0.447
13 | UCCUCCAUGCUUGGAAAAUGCAGGGAGGA [hsa-mir-764] | -0.61 | 0.669 | -1.01 | -0.857 | -0.987
14 | CCGCCUUUGUGCUGUCCUUGGAGGGAGG [hsa-mir-1910] | -0.0292 | 1.1 | 0.495 | 0.209 | 0.226
15 | GCUGGUCGCGGGUUGUGGGGUUUAGGUCACCGGC [hsa-mir-5091] | 2.9 | 1.7 | 2.87 | 3.15 | 3.21
16 | CUUUCUGUUGUCUGAAAGAAAAGAAAG [hsa-mir-520c_520b_519c_519b] | 0.102 | 0.44 | 0.38 | 0.176 | 0.458

Row | Sequence | pull-down binding Z-score [1] | pull-down binding Z-score [2] | pull-down binding Z-score [3] | pull-down binding Z-score [4] | pull-down binding Z-score (TO-N3 (biotin conjugate))
17 | AAUAAAGUAUGUCCACAGCUGAAAGGACAUACUUUAUU [hsa-mir-4464] | -0.236 | -0.77 | -1.28 | -0.7 | -1.18
18 | GGCCGUUUGAGAUGUCC [hsa-mir-3674] | -0.132 | -0.962 | 0.0919 | -0.181 | -0.259
19 | CUUUUGUUCAAAUAAAAAUGCAAAAG [hsa-mir-651] | -0.367 | -0.842 | -1.25 | -0.729 | -1.06
20 | UCAGCCCCAUAUGUAUCUGAAGGCUGA [hsa-mir-5694] | -0.286 | -0.92 | 0.0924 | -0.404 | -0.337
21 | UGUGGUGGGUGGUGGCCUGCGGUGAGCAGGGCCCUCA [hsa-mir-1228] | 1.08 | 0.921 | 2.1 | 1.6 | 2.36
22 | UGUGGUUGGGGCCAUGGCGGGUGGGCAGCCCAGCCUCUGAGCCUUCCU [hsa-mir-1238] | 1.74 | -0.179 | 2.37 | 2.04 | 2.76
23 | AUCAAAGUGGGGACUCAUGGGGAGAG [hsa-mir-4284] | 1.43 | 0.195 | 1.07 | 3.11 | 2.65
24 | AGUGCCUCACAGCCGCACAGGACCGAGGAUGCU [hsa-mir-4737] | -0.204 | 0.613 | 0.917 | 0.0032 | 0.371
25 | AGUGGACGAGUCUCAUUA [hsa-mir-3193] | 0.319 | -0.476 | 0.613 | 0.224 | 0.678
26 | UGUGUGUCGCUCCGGGUCCACG [hsa-mir-574] | -0.0762 | 0.438 | 1.25 | 0.0307 | 0.516
27 | UUGGCGUAGUGAAAUAUAUAUUAAACACCAA [hsa-mir-16-2] | 0.371 | -0.484 | 0.0267 | 0.128 | 0.0274
28 | GUUCGCUUAAUUUAUGACGAAUC [hsa-mir-487a] | -0.215 | 0.269 | -0.483 | -0.221 | -0.395
29 | GUGAGCUCAGCUCCCUGCCUCAC [hsa-mir-3622b] | -0.173 | -1.4 | 0.811 | -0.00258 | 0.138
30 | UAUUUCAAAAGACUAGAGGUAGGAAAUGAG [hsa-mir-3975] | 0.381 | 2.94 | -0.211 | -0.57 | -0.42
31 | AGAUAUAUAUAUACCUCAUAUGUAUAUGGUAUAC [hsa-mir-4777] | -0.53 | -1.5 | -0.944 | -1.2 | -1.37
